Values of other authors, collected in PMC5626786.

Target: Ark1p peptide (Saccharomyces cerevisiae) (UniProt P53974)
Chain of UniProt P53974 (P53974 whole entry): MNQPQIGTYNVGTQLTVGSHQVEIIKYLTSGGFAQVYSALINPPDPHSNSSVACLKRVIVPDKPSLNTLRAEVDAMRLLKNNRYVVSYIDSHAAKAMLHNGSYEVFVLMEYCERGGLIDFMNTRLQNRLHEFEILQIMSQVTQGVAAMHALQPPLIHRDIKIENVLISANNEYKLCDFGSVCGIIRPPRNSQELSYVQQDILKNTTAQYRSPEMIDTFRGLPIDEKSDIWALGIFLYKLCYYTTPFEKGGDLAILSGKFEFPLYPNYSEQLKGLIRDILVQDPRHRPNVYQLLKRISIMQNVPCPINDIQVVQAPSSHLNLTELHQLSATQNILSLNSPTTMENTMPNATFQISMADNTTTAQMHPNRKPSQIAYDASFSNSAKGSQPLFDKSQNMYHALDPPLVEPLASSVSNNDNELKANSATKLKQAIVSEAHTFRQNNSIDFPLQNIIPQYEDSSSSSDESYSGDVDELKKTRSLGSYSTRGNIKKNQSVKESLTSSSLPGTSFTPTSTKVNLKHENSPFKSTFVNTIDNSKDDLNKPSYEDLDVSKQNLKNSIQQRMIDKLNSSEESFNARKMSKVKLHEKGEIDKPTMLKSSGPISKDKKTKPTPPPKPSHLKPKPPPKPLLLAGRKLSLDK

Abp1p SH3 (from UniProt P15891)
Kd: 4.4 µM
